The source of these data is paper PMC13108886, “Constitutively active RAS prolongs Cdc42 signalling, while MAPK signalling is attenuated during fission yeast mating” (PLOS Genetics, 2026).

In experiment [1] the target is T1, GTP-loaded Ras1.G17V (1-172) (Schizosaccharomyces pombe (fission …, UniProt P08647 1-172, G17V)).
T1 construct: stopped with 20.5 mM MgCl2) just before the pull-down; Cloned in the vector pLEICS1; also called Ras1.G17V^GTP; source: E. coli BL21 Rosetta, purified (Ni Sepharose 6 Fast Flow), loaded with GTP
T1 sequence (looked up): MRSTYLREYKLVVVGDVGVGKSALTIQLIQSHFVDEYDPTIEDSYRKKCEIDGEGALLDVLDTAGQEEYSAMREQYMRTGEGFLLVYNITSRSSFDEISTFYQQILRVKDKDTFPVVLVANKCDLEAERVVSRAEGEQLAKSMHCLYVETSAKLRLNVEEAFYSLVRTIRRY
Briefly: pull-down; GST-Byr2 (65-180) or GST-Scd1 (760-872) on glutathione sepharose 4B beads, GTP-loaded Ras1.G17V (1-172) added; buffer A (20 mM Tris-Cl pH 7.5, 100 mM NaCl, 5 mM MgCl2, 1 mM beta-mercaptoethanol), 4 C, 30 min; bound fraction on SDS-PAGE, InstantBlue stain. As to conditions: both partners purified.

In experiment [2] the target is T1, GTP-loaded Ras1.G17V (1-172). Briefly: pull-down; competition: GST-Byr2 (65-180) on glutathione beads, GTP-loaded Ras1.G17V (1-172) with or without the Scd1 (760-872) fragment; buffer A, 4 C, 30 min; Ras1.G17V band on the stained gel quantified with Fiji. The following applies: both partners purified.

B1: GST-Scd1 (760-872) (domain or fragment, UniProt P40995 760-872, looked up)
chain: SSSTSTSLSVRNTTNVKIRLRLHEVSLVLVVAHDITFDELLAKVEHKIKLCGILKQAVPFRVRLKYVDEDGDFITITSDEDVLMAFETCTFELMDPVHNKGMDTVSLHVVVYF
notes: Cloned in the vector pLEICS4; also called GST-Scd1-PB1; Scd1-PB1; source: E. coli BL21 Rosetta, purified (glutathione sepharose 4B), kept on the beads; not shown: GST, N-terminal, kept
Take B1: the binding result in experiment [1] is listed as “binds”.

B2: Scd1 (760-872) fragment (domain or fragment, UniProt P40995 760-872, looked up)
chain: SSSTSTSLSVRNTTNVKIRLRLHEVSLVLVVAHDITFDELLAKVEHKIKLCGILKQAVPFRVRLKYVDEDGDFITITSDEDVLMAFETCTFELMDPVHNKGMDTVSLHVVVYF
notes: legend and methods say the fragment freed of GST; also called Scd1-PB1; source: E. coli BL21 Rosetta; not shown: GST, N-terminal, cleaved
Consider B2, for which, in experiment [2], the binding result is on record as “binds”.

B3: GST-Byr2 (65-180) (domain or fragment, UniProt P28829 65-180, looked up)
chain: REFPRPCILRFIACNGQTRAVQSRGDYQKTLAIALKKFSLEDASKFIVCVSQSSRIKLITEEEFKQICFNSSSPERDRLIIVPKEKPCPSFEDLRRSWEIELAQPAALSSQSSLSP
notes: Cloned in the vector pLEICS4; also called GST-Byr2-RBD; Byr2-RBD; source: E. coli BL21 Rosetta, purified (glutathione sepharose 4B), kept on the beads; not shown: GST, N-terminal, kept
For the molecule B3, in experiment [1], the binding result is given as “binds”.
